Test results reported in the nanobody polyreactivity screen of Harvey et al. (2022).

Test: yeast display, Sf9 membrane polyspecificity reagent, FACS + sequencing; frameworks hold sequencing errors
How it was run: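 A synthetic nanobody library was expressed on Saccharomyces cerevisiae BJ5465 by galactose induction for 36–48 hours. The library was stained for 1 hour at 4 °C with 10% biotinylated, detergent-solubilized Sf9 membrane reagent and enriched with streptavidin microbeads before FACS. Low and high (top ~1%) gates were set on anti-HA fluorescence for expression and streptavidin fluorescence for reagent binding, and each polyreactivity label reflects the gate of origin.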

QVQLVESGGGLVQAGGSLRLSCAASGIIFQYYAMGWYRQAPGKERELVAAITSSGGSTFYADSVKGRFTISRDNSKNTVYLQMNSLKPEDTAVFYCAGVYHRSTYDYWGQGTQVTVSS
polyreactivity (PSR sort gate): high polyreactivity

QVQLVESGGGLVQAGGSLRLSCAASGIIFQYYVMGWYRQAPGKERELVATISTRGGSTYYADSVKGRFTISRDNAKNTVYLQMNSLKPEDTAVYYCAAPYGTYAYDYWGQGTQVTVSS
polyreactivity (PSR sort gate): high polyreactivity

QVQLVESGGGLVQAGGSLRLSCAASGIIFRGNAMGWYRQAPRKEREFVAAISLRGSRTYYADSVKGRFTISRDNAKNTVYLQMNSLKPEDTAVYYCNARGGPSPFGSDYWGQGTQVTVSS
polyreactivity (PSR sort gate): high polyreactivity

QVQLVESGGGLVQAGGSLRLSCAASGIIFRGNAMGWYRQAPRKERELVAAISSAGSTNYADSVKGRFTISRDNAKNTVYLQMNSLKPEDTAVYYCAKGSSKYHVTLRGRGYYWGQGTQVTVSS
polyreactivity (PSR sort gate): low polyreactivity

QVQLVESGGGLVQAGGSLRLSCAASGIIFRGNAMGWYRQEPGKESEIVAAISLRGSRTYYADSVKGRFTISRDNAKNTVYLQMNSLKPEDSAVYYCNARGGTSPFGSDYWGQGTQVTVSS
polyreactivity (PSR sort gate): high polyreactivity

QVQLVESGGGLVQAGGSLRLSCAASGIIFRGYAMGWYREAPGKERELVAAIRDRGGSTYYADSVKGRFTISRDNAKNTVYLQMNSLKPEDTAVYYCATENRVYRHPGYDYDYWGQGTQVTVSS
polyreactivity (PSR sort gate): low polyreactivity

QVQLVESGGGLVQAGGSLRLSCAASGIIFRGYVMGWYRQAPGKERELVAAISRSGGRTYYADSVKGRFTISRDNAKNTVYLQMNSLKPEDTAVYYCNAVRYVLGYSYDYNYWGQGTQVTVSS
polyreactivity (PSR sort gate): high polyreactivity

QVQLVESGGGLVQAGGSLRLSCAASGIIFRLNTMGWYRPAPGTERELVAAITSGGSTHYADSVKGRFTISRDNAKNTVYLQRISLNPEDTAVYYCAAGHRAKYWAWHFYYPGDYWGQGTQVTVSS
polyreactivity (PSR sort gate): low polyreactivity

QVQLVESGGGLVQAGGSLRLSCAASGIIFRLYAMGWYRQAPGKERELVAAITSRGGSTYYADSVKGRFTISRDNAKKTVYLQMNSLKPEDTAVYYCAARPVYSGYDYWGQGTQVTVSS
polyreactivity (PSR sort gate): high polyreactivity

QVQLVESGGGLVQAGGSLRLSCAASGIIFRLYGMGWYRQAPGKERELVAGINTGGSTYADSVKGRFTISRDNAKNTVYLQMNSLKPEDTAVYYCATGPYLIYDYWGQGTQVTVSS
polyreactivity (PSR sort gate): low polyreactivity

QVQLVESGGGLVQAGGSLRLSCAASGIIFRNYAMGLYRQAPGKEREFVAAISGSGTSTYYADSVKGRFTISRDNAKNTVYLQMNSLKPEDTAVYYCAAEKYSYPYDYEYWGQGTQVTVSS
polyreactivity (PSR sort gate): high polyreactivity

QVQLVESGGGLVQAGGSLRLSCAASGIIFRNYAMGWYRQAAGNERAWVAAISWTGDSTYYADSVKGRFTISRDNAKNTVYLQMNSQKPEETAVYYCAAEAYYGLWMDYWGQGTQVTVSS
polyreactivity (PSR sort gate): low polyreactivity

QVQLVESGGGLVQAGGSLRLSCAASGIIFRNYAMGWYRQAPGEERELVATIRYRGGRTYADSVKGRFTISRDNAKNTVYLQMNSLKPEDTAVYYCNTYARYAYLTGRMDYWGQGTQVTVSS
polyreactivity (PSR sort gate): high polyreactivity

QVQLVESGGGLVQAGGSLRLSCAASGIIFRNYAMGWYRQAPGKERELVAAISWTGDSTYYADSVKGRFTISRDNAKNTVYLQMNSLKPEDTAVDYCAAEAYYGLWMDYWGQGTQVTVSS
polyreactivity (PSR sort gate): low polyreactivity

QVQLVESGGGLVQAGGSLRLSCAASGIIFRPNAMGWYRQEPGKERELVAAISRNGVRTYYSDSVKGRFTISRDNAKITVYLQMNSLKPEDTAVYYCNRDYNAAYDWGEGTQVTVSS
polyreactivity (PSR sort gate): high polyreactivity

QVQLVESGGGLVQAGGSLRLSCAASGIIFRRYAMGLYRQAPGKERELVAAISSRGGSTYYADSVKGRFTISRDNAKNTVYLQMNCLKPEDTAVYFCAKGFSGTGGSGDFGYWGQGTQETVSS
polyreactivity (PSR sort gate): high polyreactivity

QVQLVESGGGLVQAGGSLRLSCAASGIIFRRYAMGWYRQAPGKERELVAAITGSGGSTYYADSVKGRFTISRDNAKNTVYLQMNSLKPEDTAVYYCAAQSLLRFASSRYNSWGQGTQVTVSS
polyreactivity (PSR sort gate): high polyreactivity

QVQLVESGGGLVQAGGSLRLSCAASGIIFRSYAMGWYRQAPGKERELVAAISRRGGSTYYADSVKGRFTISRDNAKNTVYLQMNSLKPEDTAVYYCAATVLSSPEPYDYWGQGTQVTVSS
polyreactivity (PSR sort gate): high polyreactivity

QVQLVESGGGLVQAGGSLRLSCAASGIIFRSYAMGWYRQAPGKERELVAGISLSGGSTYYADSVKGRFTISRDNAKNTVYLQMNSLKPEDTAVYYCATRNHYFRALRYGYCGQGTQVTVSS
polyreactivity (PSR sort gate): high polyreactivity

QVQLVESGGGLVQAGGSLRLSCAASGIIFRSYAMGWYRQAPGKERELVAGISLSGGSTYYADSVKGRFTISRDNAKNTVYLQMNSLKPEDTAVYYCATRNHYFRALRYGYWGQGTQVTVSS
polyreactivity (PSR sort gate): high polyreactivity

QVQLVESGGGLVQAGGSLRLSCAASGIIFRSYTMGWYRQAPGKERELVASITRSGGITYYADSVKGRFTISRDNAKNTVYLQMNSLKPEDTAVYYCAARHRYYYQYRSDYWGQGTQVTVSS
polyreactivity (PSR sort gate): high polyreactivity

QVQLVESGGGLVQAGGSLRLSCAASGIIFRVYAMGWYRQAPGKERELFATITWSGGSTFYADSLKGRFTISRDNAKNTVYLQLNSLKPEDTAVYYCAKRGYVRSGLGRPYADDYWGQCTQVTVSS
polyreactivity (PSR sort gate): low polyreactivity

QVQLVESGGGLVQAGGSLRLSCAASGIIFRWYTMGWYRQAPGKEREVVAAITGRGGSTYYADSVKGRFTISRDNAKNTVYLQMNSLKPEDSAVYYCAAQYSYPTPYRTYEYDYWGQGTQVTVSS
polyreactivity (PSR sort gate): high polyreactivity

QVQLVESGGGLVQAGGSLRLSCAASGIIFRWYVMGWYRQSPGKERELVAAITNGGRTYYADSVKGRFTISRDNAKNTVYLQMNSLKPEDTEVYYCAAYFRRKMDYWGQGTQVTVSS
polyreactivity (PSR sort gate): high polyreactivity

QVQLVESGGGLVQAGGSLRLSCAASGIIFRYYALGWYRKAPRKERELVAAINWRGGRTYYADSVKGRFTISRDNAKNTVYLQMNSLKPEDTAVYYCAAYIYYPYRNDYWGQGTQVTVSS
polyreactivity (PSR sort gate): high polyreactivity

QVQLVESGGGLVQAGGSLRLSCAASGIIFRYYAMGWYRPAPGKERELVAAISSGGSTNYADSVKGRFTISRDNAKNTVYLQMNSLKPEDTAVYYCAADYTYNGLEYDYWGQGTQVTVSS
polyreactivity (PSR sort gate): high polyreactivity

QVQLVESGGGLVQAGGSLRLSCAASGIIFRYYAMGWYRQAPGKERELVAAISGTGSTKYADSVKGRFTISRDNAKNTVYLQMNSLKPEDTAVYYCNPRKRYARYGGSGYDYWGQGTQVTVSS
polyreactivity (PSR sort gate): high polyreactivity

QVQLVESGGGLVQAGGSLRLSCAASGIIFRYYAMGWYRQAPGKERELVAAISWSTDSTYYADSVKGRFTISRDNAKNTVYLPMNSLKPEDTAVYYCNARPSYYRISPYDYWGQGTQVTVSS
polyreactivity (PSR sort gate): high polyreactivity

QVQLVESGGGLVQAGGSLRLSCAASGIIFRYYAMGWYRQAPGKERELVAVITGRGGGTYYADSVKGRFTISRDNAKNTVYLQMNSLKPEDTAVYYCAKDFTGHYPKGFDYWGQGTQVTVSS
polyreactivity (PSR sort gate): low polyreactivity

QVQLVESGGGLVQAGGSLRLSCAASGIIFRYYVMGWYRQAPGKERELVADITSGGSTYYADSVKGRFTISRDNEKNTVYLQMNSLKPEDTAVYYCAADYQYDWFYYWGQGTQVTVSS
polyreactivity (PSR sort gate): high polyreactivity

QVQLVESGGGLVQAGGSLRLSCAASGIIFSAYAMGCYRQAPGKESELVAAISSTGGSTYYADSVKGRFTISRDNAKNTVYLQMNSLKPEDTADYYCATAFTPSKLSRMGYWGQGTQVTVSS
polyreactivity (PSR sort gate): high polyreactivity

QVQLVESGGGLVQAGGSLRLSCAASGIIFSFYAMGWYRQAPWKERELVAAISSGGNTNYADSVNGRFTISRDNAKNTVYLQMNSLKPEDTAVYYCAAGYYIWSTYDYWGQGTQVTVSS
polyreactivity (PSR sort gate): low polyreactivity
